For four molecules, binding result and Kd results are on record in PMC9888390, “A non-neutralizing glycoprotein B monoclonal antibody protects against herpes simplex virus disease in mice” (The Journal of Clinical Investigation, 2023).

Experiment [1] concerns the target T1, Recombinant HSV-1 glycoprotein B, soluble ectodomain (Human herpesvirus 1, strain  …, UniProt P06437).
T1 construct: glycoprotein B of herpes simplex virus 1, soluble ectodomain, postfusion state; The printed limits 31-70 are perhaps a misprint of 31-730 (surmised). 'epo' in the name is perhaps a foreign signal peptide (surmised); also called gB; gB-1; not shown: His tag, C-terminal, kept
The experiment is described as follows: Luminex bead binding assay; HSV-1 gB coupled to carboxylated beads; rAbs serially diluted from 2 μg/mL (3-fold, 11 dilutions) in PBS with 1% BSA, 0.05% NaN3, 0.05% Tween-20 and 1% milk, 2 hours; detected with PE-conjugated goat anti-mouse IgG. Particulars: both partners purified.

Experiment [2] deals with T2, glycoprotein B of HSV-2(4674), from infected Vero cells (Human herpesvirus 2, clinical isolate …, UniProt P08666, strain).
T2 construct: glycoprotein B of herpes simplex virus 2, clinical isolate 4674, as made in infected cells; Seen as a band of about 100 kDa or about 116 kDa on a reducing gel; also called gB; monomeric gB; source: Vero cells infected with HSV-2(4674), in lysate
The experiment is described as follows: Western blot; HSV-2(4674)-infected or uninfected Vero cell lysates (10 μg per lane) separated by PAGE with β-mercaptoethanol, blotted and probed with BMPC-23 (10 μg/mL) overnight; anti-mouse IgG-HRP. Particulars: one partner purified. In general terms: Immunoblotting shows a protein as a band on a membrane.

Experiment [3] deals with glycoprotein B of HSV-2(G), from infected HaCaT cells (Human herpesvirus 2, strain G, UniProt A0A0D4CHI5, strain). The experiment is described as follows: affinity purification with mass spectrometry; RIPA lysate of HSV-2(G)-infected HaCaT cells incubated overnight at 4°C with 1 mg/mL mAb; Protein A resin; elution with glycine-HCl pH 2.5-3.0; SDS-PAGE, in-gel trypsin digestion, nano-LC-MS/MS. Particulars: one partner purified.

The target of experiment [4] is T1, Recombinant HSV-1 glycoprotein B, …. As to the kind of experiment: BLI; OctetRed96; gB (C-terminal His tag) captured on anti-His (HIS2) biosensors at 1 ng/μL, dipped into increasing concentrations of BMPC-23 Fab; 1:1 binding model; apparent KD derived from on and off rates. Particulars: both partners purified.
For experiment [5] the target is unchanged. The experiment is described as follows: cryo-EM structure; gB 2.5 mg/mL with a 2-fold molar excess of Fab (3 mg/mL), 0.08% n-octyl-β-D-glucoside; Titan Krios 300 keV, K3 detector; gB in the postfusion state. Particulars: both partners purified.

B1: BMPC-23 recombinant mouse IgG (antibody, V domains shown)
VH: QVQLQQSGPELVKPGASVKLSCKASGYSFTTYDINWVKERPGQGLEWIGWIYPREGSTNYNEKFRGKATLTADTSSSTAYMELHSLTSEDSAVYFCATYGSSRYYTMDYWGQGTSVTVSS
VL: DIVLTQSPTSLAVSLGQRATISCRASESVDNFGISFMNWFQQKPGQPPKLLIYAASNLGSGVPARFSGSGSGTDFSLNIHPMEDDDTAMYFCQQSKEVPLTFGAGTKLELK
notes: VH of BMPC-23 (bone marrow plasmacyte of a ΔgD-2-vaccinated C57BL/6 mouse); mouse IgG1 or IgG2c constant region from the expression vector; VL of BMPC-23; Cloned into both mouse IgG1 and IgG2c vectors; also called BMPC-23 (IgG2c); mIgG2c BMPC-23; source: Expi293F, transient transfection, purified from culture supernatant (protein G spin columns); copies: 2 + 2
Regarding B1, the binding result in experiment [1], in experiment [2] and in experiment [3] was “binds” in each case.

B2: BMPC-23 Fab (Fab, V domains shown)
VH: B1 VH
VL: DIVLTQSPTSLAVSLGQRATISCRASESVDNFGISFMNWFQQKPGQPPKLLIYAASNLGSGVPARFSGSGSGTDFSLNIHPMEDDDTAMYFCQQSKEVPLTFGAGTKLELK
notes: as the heavy chain of m1 up to the papain cut; as the light chain of m1; also called Fab of BMPC-23; Fab portion of BMPC-23; source: from intact BMPC-23 (Expi293F) by cleavage with immobilized papain; purified by subtractive protein A chromatography
Turning to B2, the Kd in experiment [4] is 10 nM.

B3: HSV010-13 recombinant mouse IgG (antibody, V domains shown)
VH: QVQLQQPGAELVKPGASVKLSCKASGYTFTSYWIHWVKQGPGQGLEWIGMIHPNSGITHYNEKFKTKATLTVDKSSSTAYMQLSSLTSEDSAVCYCARGSSSGSAWFAYWGQGTLVTVSA
VL: DIQMTQSSSYLSESLGGRVTITCKASDHINNWLAWYQQKPGNAPRLLISGATSLETGVPSRFSGSGSGKDYTLSITSLQTEDVATYYCQQYWSSPLTFGAGTKLELK
notes: VH of HSV010-13 (germinal center B cell of a ΔgD-2-vaccinated C57BL/6 mouse); VL of HSV010-13; Member of a clonal lineage of five (HSV010-6, -9, -13, -14, -15); source: Expi293F, transient transfection, purified from culture supernatant (protein G spin columns); copies: 2 + 2
For the molecule B3, the binding result in experiment [1] is recorded as “binds”.

B4: HSV010-13 Fab (Fab, V domains shown)
VH: B3 VH
VL: B3 VL
notes: Fab part of the heavy chain of m5; as the light chain of m5; The methods tell how the Fab was made only for BMPC-23; also called Fab fragment of HSV010-13
Regarding B4, the binding result in experiment [5] is given as “binds”.
